B1: ZC3H15 (parent)
chain: RKADFKAGKALVISGREVFEFRPE
B2: COX4I1 (parent)
chain: FDKEWVAKQTKRMLDMKVNPIQGL

Variants of: B1
Test: protein stability index of a GFP-peptide fusion (GPS, HEK-293T) (PSI 1-6); higher = more stable
Settings: c terminus: a fixed tail appended
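Note: lentivirally expressed fusions sorted by FACS into six bins by GFP to DsRed ratio, PSI derived from sequencing read proportions per bin multiplied by bin number.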

Protein stability index: each site, then its substitutions
R16: D 3.69 | W 1.92 | P 3.27 | F 1.65 | K 3.38 | C 1.89 | H 2.98 | G 2.99 | S 3.21 | L 2.42 | E 3.7 | Y 1.54 | N 3.63 | T 2.99 | A 2.71 | Q 3.61 | I 1.92 | M 2.08 | V 1.91
A10: T 2.88 | P 3.73 | G 2.86 | W 2.97 | N 3.16 | D 3.5 | H 2.75 | M 2.09 | C 2.12 | L 2.09 | F 1.53 | K 2.47 | S 2.86 | E 2.97 | Q 3.17 | R 3.09 | V 2.49 | I 2.09 | Y 1.92
A7: C 2.35 | V 2.91 | L 2.08 | N 3.11 | P 3.2 | G 2.86 | R 2.85 | K 3.67 | Y 2.18 | H 2.75 | I 2.66 | D 3.12 | F 2.21 | S 3.26 | Q 2.93 | E 2.86 | M 2.46 | W 1.71 | T 3.12
E17: G 2.3 | C 1.71 | H 1.9 | D 2.88 | F 2.17 | A 1.47
L11: F 2.65 | N 4.1 | K 3.77 | W 2.55 | Y 2.29 | T 3.76 | R 2.95 | C 3.09 | D 3.69 | I 2.72 | H 3.36 | P 3.54 | M 2.84 | Q 3.66 | S 3.69 | G 3.46 | V 3.11 | A 3.06 | E 3.78
K2: F 2.06 | S 3.02 | R 2.78 | Y 2 | D 3.43 | L 1.76 | W 1.94 | T 3.06 | C 1.85 | M 2.33 | P 2.75 | E 2.81 | A 3.43 | H 2.46 | G 3.3 | V 2.49 | N 3.24 | Q 3.23 | I 1.92
G8: P 2.65 | H 2.66 | S 2.7 | F 1.93 | N 3.3 | A 2.94 | C 2.14 | L 1.92 | E 2.99 | T 2.78 | W 1.79 | V 2.16 | K 3.24 | I 2.23 | Q 2.85 | M 2.59 | Y 1.74 | R 2.52 | D 3.31
A3: V 2.61 | K 3.12 | I 2.71 | S 2.68 | R 2.85 | L 2.57 | Y 2.52 | N 3.11 | W 2.51 | D 3.7 | C 2.09 | M 2.75 | F 2.23 | G 3.13 | E 3.77 | H 2.44 | T 3.24 | Q 3.06 | P 2.95
V12: K 2.91 | I 2.85 | H 3.52 | F 2.39 | L 2.42 | N 3.93 | C 2.89 | T 2.68 | P 3.82 | Y 2.73 | M 3.26 | R 3.31 | S 3.47 | G 3.17 | W 2.4 | D 4.03 | Q 3.15 | A 3.23 | E 3.49
R1: M 2.71 | E 3.5 | T 3.22 | V 2.02 | F 2.01 | S 2.9 | W 2.53 | Q 2.99 | D 3.7 | A 3.21 | Y 2.81 | I 1.58 | K 3.32 | N 3.23 | C 1.91 | L 2.43 | P 3.19 | G 2.95 | H 3.44
I13: W 2.8 | Q 3.72 | R 3.89 | P 3.48 | S 3.8 | M 3.26 | C 3.2 | E 4.28 | D 4.17 | N 3.95 | L 3.55 | A 3.86 | V 3.51 | T 3.21 | H 3.13 | F 2.32 | Y 2.77 | G 4 | K 3.79
D4: Q 2.73 | G 2.42 | H 2.15 | C 1.79 | Y 2.12 | I 2.27 | V 2.2 | R 2.55 | M 2.54 | S 2.55 | F 1.98 | E 2.64 | P 2.36 | T 1.98 | W 1.73 | K 2.53 | A 2.36 | N 2.03 | L 1.91
K9: D 3.18 | E 3.11 | R 2.31 | Q 2.65 | C 2.33 | T 3.04 | N 3.16 | Y 1.05 | A 3.02 | I 1.57 | H 2.93 | F 1.7 | W 1.87 | P 2.78 | M 2.31 | S 3.16 | V 2.48 | G 2.28 | L 1.99
F5: Q 3.8 | K 3.47 | L 3.93 | H 3.77 | D 3.77 | M 2.85 | S 3.77 | A 3.91 | W 2.48 | Y 3.16 | P 3.25 | E 4.18 | G 4.05 | T 3.59 | I 2.94 | R 3.76 | V 3.6 | C 3.55 | N 3.38
G15: N 3.4 | L 1.81 | M 2.04 | P 3.37 | V 2.06 | E 3.65 | W 1.37 | Y 1.85 | K 3.14 | C 2.07 | A 2.64 | F 2.27 | I 2.37 | H 2.2 | D 3.38 | S 3.18 | Q 2.92 | T 2.93 | R 2.73
S14: T 2.98 | R 2.56 | F 1.23 | W 1.87 | Q 2.81 | D 3.82 | E 3.67 | A 2.86 | N 2.66 | H 3.31 | P 3.44 | Y 2.39 | L 1.57 | I 1.93 | V 1.43 | K 3.32 | C 1.21 | G 3.11 | M 2.49
K6: P 2.72 | N 3.22 | R 2.29 | L 2.29 | M 2.36 | D 3.75 | S 2.82 | V 3.03 | A 2.71 | H 2.6 | W 2.4 | Q 2.44 | I 2.42 | G 2.4 | F 1.79 | Y 2.87 | E 3.24 | C 2.79 | T 2.99

Variants of: B2
Test: as above
Settings: c terminus: a fixed tail appended

Protein stability index: each site, then its substitutions
G23: W 1.88 | Y 1.92 | V 1.59 | S 1.7 | T 1.77
L24: K 1.03 | F 1.72 | Y 1.59 | M 1.74 | Q 2.45 | I 2.3 | G 2.86 | C 2.19 | W 1.73 | P 2.08 | S 2.31 | E 3.09 | V 1.91 | A 1.83 | T 1.35 | D 1.84 | N 2.28 | R 2.09 | H 2.55

Reference: the supplement of paper PMC10567573
